The source of these data is publication PMC7367391, “EtMIC3 and its receptors BAG1 and ENDOUL are essential for site-specific invasion of Eimeria tenella in chickens” (Veterinary Research, 2020).

The target of this test is T1, pGEX-6P-1-EtMIC3 recombinant protein (E. tenella, UniProt B6VCV4 1-988).
T1 sequence (looked up): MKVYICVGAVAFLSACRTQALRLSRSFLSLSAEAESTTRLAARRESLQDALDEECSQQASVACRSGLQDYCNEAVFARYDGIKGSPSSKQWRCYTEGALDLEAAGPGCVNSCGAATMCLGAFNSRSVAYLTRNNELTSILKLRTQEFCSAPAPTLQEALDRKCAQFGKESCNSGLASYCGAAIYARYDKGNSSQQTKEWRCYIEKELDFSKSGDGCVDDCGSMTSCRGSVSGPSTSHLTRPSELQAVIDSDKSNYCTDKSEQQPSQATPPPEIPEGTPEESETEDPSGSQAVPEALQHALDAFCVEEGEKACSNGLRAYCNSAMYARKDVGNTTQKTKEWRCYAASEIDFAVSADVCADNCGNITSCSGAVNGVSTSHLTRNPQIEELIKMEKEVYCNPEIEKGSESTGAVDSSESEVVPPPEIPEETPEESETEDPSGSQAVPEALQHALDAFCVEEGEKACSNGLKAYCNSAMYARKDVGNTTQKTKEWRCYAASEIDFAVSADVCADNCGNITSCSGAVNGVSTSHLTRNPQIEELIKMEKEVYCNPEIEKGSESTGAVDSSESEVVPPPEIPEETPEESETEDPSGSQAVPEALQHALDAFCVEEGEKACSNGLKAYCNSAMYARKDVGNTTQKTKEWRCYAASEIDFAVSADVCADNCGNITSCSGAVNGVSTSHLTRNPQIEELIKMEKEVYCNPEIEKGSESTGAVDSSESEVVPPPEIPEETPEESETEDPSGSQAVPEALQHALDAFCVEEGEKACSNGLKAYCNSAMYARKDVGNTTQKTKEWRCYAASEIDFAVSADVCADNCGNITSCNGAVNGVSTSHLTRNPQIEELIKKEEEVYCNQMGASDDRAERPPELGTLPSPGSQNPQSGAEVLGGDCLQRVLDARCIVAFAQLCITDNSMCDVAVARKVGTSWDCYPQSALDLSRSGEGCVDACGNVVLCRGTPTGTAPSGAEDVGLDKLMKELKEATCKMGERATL
The experiment in a line: cell-based or functional assay.

B1: recombinant ENDOUL expressed from pET-32a-ENDOUL (natural protein, chicken, UniProt A0A8V0YKR0 1-289, looked up)
chain: MADRKALNHELSKLFNEMWDMDVNRFTPGKDYAIELQGKADAVLQGDSVVQDSAARHLFHYVNEERLKNIKTFATFISLLDNYETSTGVEEIVTPEEIAENNCFLDAILMTGVMKLAHEYLLKKKLAKPNLADFKYQLYDIWFQLYPRKEGDRPDSCGFEHVFVGETRRGKQILGLHNWVQFYLQEKHKQIDYKGYIARKNKTRPDRDDQVLSIQFSWKGSVKPIGSTFIGVSPEFEFALYTVIFLLSEERVTRKTVKIEEYELQIVVCRHGRHIGTAYPVLLNTSNED
Regarding B1, the “oocyst decrease ratio (%) in chickens challenged with 5 × 10^4 E. tenella sporulated oocysts and injected intravenously with anti-ENDOUL serum every day for 7 days” value stood at 5.07%.

B2: recombinant BAG1 expressed from pET-32a-BAG1 (natural protein, chicken, UniProt F1NPL0 1-209, looked up)
chain: MAVPGAPVSVTVTYSNEKHNIQVASQQEDGEPTLQDMAVLIEQVTGVPVSFQKLIYKGKSLKELEQPLSALGVKNGCKVMLIGKRNSPEEEAELKKLKDLEKSVEQIANKLEEVNKEFTSIQKGFLAKDLQAEALKQLDKRIKGTAEQFMKILEQVDAINLPENFNDCRLKKKGLVKRVQAFLAQCDTVEGNIGQEMDKLQSKNLALAE
Turning to B2, the “oocyst decrease ratio (%) in chickens challenged with 5 × 10^4 E. tenella sporulated oocysts and injected intravenously with anti-BAG1 serum every day for 7 days” value came to 3.63%.
